PMC12416549 (2024)
Numbering of substitutions follows the chain as printed. Names may count otherwise.

Target: T1, TNFR1 (Homo sapiens, UniProt P19438)
T1 chain: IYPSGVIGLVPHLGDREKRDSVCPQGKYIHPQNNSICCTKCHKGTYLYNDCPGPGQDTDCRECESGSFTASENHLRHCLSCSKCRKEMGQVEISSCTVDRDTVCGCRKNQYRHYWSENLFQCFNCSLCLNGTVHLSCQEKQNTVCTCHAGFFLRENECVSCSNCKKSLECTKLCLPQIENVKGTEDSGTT
Test: yeast display SC50

B1: S77P (designed binder)
chain: SMEEEVEKAAKEYEKKKKEAIEKHLEKLKAKDKEAAERFLKELEEAAKEYAKDEAKTMSEEEAKRRAKKYKEKVLLPELSEEEQKEIKEAEEKLVRTILKYVEEAAK
- apparent Kd (screen): 11.4 nM

B2: K107E (designed binder)
chain: B1 chain with P77S, K107E
- apparent Kd (screen): 1.54 nM

B3: Y50S (designed binder)
chain: B1 chain with Y50S, P77S
- apparent Kd (screen): 5.31 nM

B4: I87G (designed binder)
chain: B1 chain with P77S, I87G
- apparent Kd (screen): 13.8 nM

B5: R66H (designed binder)
chain: B1 chain with R66H, P77S
- apparent Kd (screen): 24.4 nM

B6: R38F (designed binder)
chain: B1 chain with R38F, P77S
- apparent Kd (screen): 1.05 nM

B7: A55L (designed binder)
chain: B1 chain with A55L, P77S
- apparent Kd (screen): 0.593 nM

B8: Q84N (designed binder)
chain: B1 chain with P77S, Q84N
- apparent Kd (screen): 2.48 nM

B9: H24V (designed binder)
chain: B1 chain with H24V, P77S
- apparent Kd (screen): 1.05 nM

B10: E19R (designed binder)
chain: B1 chain with E19R, P77S
- apparent Kd (screen): 0.446 nM

B11: K68F (designed binder)
chain: B1 chain with K68F, P77S
- apparent Kd (screen): 3 nM

B12: A55D (designed binder)
chain: B1 chain with A55D, P77S
- apparent Kd (screen): 12.5 nM

B13: E22I (designed binder)
chain: B1 chain with E22I, P77S
- apparent Kd (screen): 1.16 nM

B14: R38W (designed binder)
chain: B1 chain with R38W, P77S
- apparent Kd (screen): 0.446 nM

B15: V102M (designed binder)
chain: B1 chain with P77S, V102M
- apparent Kd (screen): 0.49 nM

B16: A30W (designed binder)
chain: B1 chain with A30W, P77S
- apparent Kd (screen): 0.593 nM

B17: V6Y (designed binder)
chain: B1 chain with V6Y, P77S
- apparent Kd (screen): 0.446 nM

B18: K48R (designed binder)
chain: B1 chain with K48R, P77S
- apparent Kd (screen): 0.593 nM

B19: E5W (designed binder)
chain: B1 chain with E5W, P77S
- apparent Kd (screen): 0.539 nM

B20: A30I (designed binder)
chain: B1 chain with A30I, P77S
- apparent Kd (screen): 0.653 nM

B21: A106W (designed binder)
chain: B1 chain with P77S, A106W
- apparent Kd (screen): 0.368 nM

B22: S1Y (designed binder)
chain: B1 chain with S1Y, P77S
- apparent Kd (screen): 3 nM

B23: M2G (designed binder)
chain: B1 chain with M2G, P77S
- apparent Kd (screen): 0.446 nM

B24: E78M (designed binder)
chain: B1 chain with P77S, E78M
- apparent Kd (screen): 0.956 nM

B25: Y50W (designed binder)
chain: B1 chain with Y50W, P77S
- apparent Kd (screen): 7.07 nM

B26: E54C (designed binder)
chain: B1 chain with E54C, P77S
- apparent Kd (screen): 11.4 nM

B27: L25F (designed binder)
chain: B1 chain with L25F, P77S
- apparent Kd (screen): 0.49 nM

B28: L76K (designed binder)
chain: B1 chain with L76K, P77S
- apparent Kd (screen): 3.3 nM

B29: A35Y (designed binder)
chain: B1 chain with A35Y, P77S
- apparent Kd (screen): 1.27 nM

B30: K27N (designed binder)
chain: B1 chain with K27N, P77S
- apparent Kd (screen): 0.653 nM

B31: D32G (designed binder)
chain: B1 chain with D32G, P77S
- apparent Kd (screen): 0.593 nM

B32: L28P (designed binder)
chain: B1 chain with L28P, P77S
- apparent Kd (screen): 13.8 nM

B33: R96M (designed binder)
chain: B1 chain with P77S, R96M
- apparent Kd (screen): 1.05 nM

B34: K23Y (designed binder)
chain: B1 chain with K23Y, P77S
- apparent Kd (screen): 0.368 nM

B35: R66K (designed binder)
chain: B1 chain with R66K, P77S
- apparent Kd (screen): 10.4 nM

B36: S77C (designed binder)
chain: B1 chain with P77C
- apparent Kd (screen): 1.54 nM

B37: S1C (designed binder)
chain: B1 chain with S1C, P77S
- apparent Kd (screen): 15.2 nM

B38: K16Q (designed binder)
chain: B1 chain with K16Q, P77S
- apparent Kd (screen): 0.718 nM

B39: E54A (designed binder)
chain: B1 chain with E54A, P77S
- apparent Kd (screen): 3.63 nM

B40: L79K (designed binder)
chain: B1 chain with P77S, L79K
- apparent Kd (screen): 0.304 nM

B41: E12C (designed binder)
chain: B1 chain with E12C, P77S
- apparent Kd (screen): 0.956 nM

B42: R66T (designed binder)
chain: B1 chain with R66T, P77S
- apparent Kd (screen): 16.7 nM

B43: S59R (designed binder)
chain: B1 chain with S59R, P77S
- apparent Kd (screen): 1.05 nM

B44: K16M (designed binder)
chain: B1 chain with K16M, P77S
- apparent Kd (screen): 0.446 nM

B45: E49D (designed binder)
chain: B1 chain with E49D, P77S
- apparent Kd (screen): 4.39 nM

B46: E3N (designed binder)
chain: B1 chain with E3N, P77S
- apparent Kd (screen): 2.73 nM

B47: K27M (designed binder)
chain: B1 chain with K27M, P77S
- apparent Kd (screen): 1.05 nM

B48: L43N (designed binder)
chain: B1 chain with L43N, P77S
- apparent Kd (screen): 0.446 nM

B49: D32M (designed binder)
chain: B1 chain with D32M, P77S
- apparent Kd (screen): 5.84 nM

B50: V74G (designed binder)
chain: B1 chain with V74G, P77S
- apparent Kd (screen): 1.05 nM

B51: A105M (designed binder)
chain: B1 chain with P77S, A105M
- apparent Kd (screen): 3 nM

B52: K100W (designed binder)
chain: B1 chain with P77S, K100W
- apparent Kd (screen): 1.05 nM

B53: E83H (designed binder)
chain: B1 chain with P77S, E83H
- apparent Kd (screen): 1.27 nM

B54: K31R (designed binder)
chain: B1 chain with K31R, P77S
- apparent Kd (screen): 0.49 nM

B55: A67M (designed binder)
chain: B1 chain with A67M, P77S
- apparent Kd (screen): 7.78 nM

B56: S80T (designed binder)
chain: B1 chain with P77S, S80T
- apparent Kd (screen): 1.27 nM

B57: E91K (designed binder)
chain: B1 chain with P77S, E91K
- apparent Kd (screen): 11.4 nM

B58: E92C (designed binder)
chain: B1 chain with P77S, E92C
- apparent Kd (screen): 6.43 nM

B59: L79Y (designed binder)
chain: B1 chain with P77S, L79Y
- apparent Kd (screen): 12.5 nM
